Assay in all cases: purified protein
Holding throughout (type): biochemical, Agrocybe pediades

Substrate in series [1]: COc1ccc(CO)cc1OC
Conditions: pH 4.0, 25 °C, 0.4 mM H2O2, fit with substrate inhibition.

Substrate in series [2]: CCn1c(=NN=c2sc3cc(S(=O)(=O)O)ccc3n2CC)sc2cc(S(=O)(=O)O)ccc21
Substrate in series [3]: COc1cccc(OC)c1O
Substrate in series [4]: Nc1c(N=Nc2ccc(S(=O)(=O)CCOS(=O)(=O)O)cc2)c(S(=O)(=O)O)cc2cc(S(=O)(=O)O)c(N=Nc3ccc(S(=O)(=O)CCOS(=O)(=O)O)cc3)c(O)c12
To be noted: Hill n = 2.11 ± 0.30, pH 3.0, 25 °C, 0.4 mM H2O2.

Setting [5] is: high-efficiency site of biphasic kinetics, Hill n = 1.62 ± 0.12, 100 mM sodium tartrate pH 3.0, 25 °C, 0.4 mM H2O2.
The mark [6] stands for this setting: pH 3.0, 25 °C, 0.4 mM H2O2, fit with substrate inhibition.
[7] abbreviates: low-efficiency site (only site left), Hill n = 1.62 ± 0.28, strong substrate inhibition, pH 3.0, 25 °C, 1 mM H2O2.
Setting [8] is: pH 8.0, 25 °C, 1 mM H2O2, Michaelis-Menten fit despite substrate/product inhibition, no activity at pH 3.

Where a chain is given by its changes, count along the chain named. Names may count otherwise.

The values below come from paper PMC8472802, “Agaricales Mushroom Lignin Peroxidase: From Structure–Function to Degradative Capabilities” (Antioxidants, 2021).

B1: ApeLiP (LiP of Agrocybe pediades) (Agrocybe pediades) (protein)
chain: AVTCPTGQTTANEACCVLFPVIDLLQEELFDGGECGEEAHAALRLAFHDAIGFSKNGGKGGGADGSILAFHQTETTYAANSGIEDIITAQLPIFQKTNLTAGDFVHLAAAIGTGNCPGSPQLAYSFGRPPPVAPAPDGTVPEPTDSVTDILARFSEAGFVTAEVIWLLASHSIAAASKIDTSAPRTPFDSTPALFDTQFYLETILNGTLLPGDGGAHTGEVLSPIAGEMRLQSDFAFAQDPRTACLWQEPINDQAFIQGKFFAAMKKLQVLGQTGLTDCSDVIPVPASLPGPITFPAGFSEADVISACTATPLPSLATIAGPKPTIPPVPL
In general, Km refers to the concentration of substrate that gives half-maximal velocity. The kcat is the number of substrate molecules converted per active site and unit of time at saturation. The term kcat/Km denotes the second-order rate constant that governs catalysis at low substrate concentration. As to B1, in the series “purified protein [1]”, the Km result is reported as “(29.6 ± 4.6) × 10^3 µM”, the kcat was 4.3 ± 0.3 s⁻¹ and the kcat/Km came to 150 ± 30 M⁻¹ s⁻¹. For the same protein, in “purified protein [2]” (setting [5]), the K0.5 turned out to be 8.1 ± 0.6 µM, the kcat amounted to 42 ± 1.8 s⁻¹ and the kcat/Km was 5130 ± 460 s⁻¹ mM⁻¹. Also, in “purified protein [3]” (setting [6]), the Km is on record as 37 ± 5.6 µM, the kcat worked out at 68.6 ± 2.8 s⁻¹ and the kcat/Km was 1.91e+06 ± 310000 M⁻¹ s⁻¹. Also, in “purified protein [4]”, the K0.5 worked out at 14 ± 1.4 µM, the kcat was determined as 21 ± 1.5 s⁻¹ and the specificity constant (kcat/Km) stood at 1.54e+06 ± 115000 M⁻¹ s⁻¹.

B2: ApeLiP (LiP of Agrocybe pediades) (Agrocybe pediades; W166A) (protein)
chain: B1 chain with W166A
As to B2, in “purified protein [2]” (setting [7]), the K0.5 was determined as 1150 ± 190 µM, the kcat is listed as 117 ± 10 ^c s^-1 and the kcat/Km is listed as 102 ± 19 ^c s^-1·mM^-1. Further, in “purified protein [3]” (setting [8]), the Km came to 49 ± 8.2 µM, the kcat turned out to be 6.1 ± 0.27 s⁻¹ and the kcat/Km amounted to 125000 ± 22000 M⁻¹ s⁻¹.
